Data as given in PMC13454268 (Nature Communications, 2026).

How the values were obtained:
R. rubrum rubisco = biological target: T1, R. rubrum rubisco (Rhodospirillum rubrum, UniProt P04718); test: […]-CABP binding, liquid scintillation (active-site count); details: activated enzyme; labelled compound
T1 construct: gene cbbM; form II large subunit, L2 homodimer
T1 sequence (P04718 1-466): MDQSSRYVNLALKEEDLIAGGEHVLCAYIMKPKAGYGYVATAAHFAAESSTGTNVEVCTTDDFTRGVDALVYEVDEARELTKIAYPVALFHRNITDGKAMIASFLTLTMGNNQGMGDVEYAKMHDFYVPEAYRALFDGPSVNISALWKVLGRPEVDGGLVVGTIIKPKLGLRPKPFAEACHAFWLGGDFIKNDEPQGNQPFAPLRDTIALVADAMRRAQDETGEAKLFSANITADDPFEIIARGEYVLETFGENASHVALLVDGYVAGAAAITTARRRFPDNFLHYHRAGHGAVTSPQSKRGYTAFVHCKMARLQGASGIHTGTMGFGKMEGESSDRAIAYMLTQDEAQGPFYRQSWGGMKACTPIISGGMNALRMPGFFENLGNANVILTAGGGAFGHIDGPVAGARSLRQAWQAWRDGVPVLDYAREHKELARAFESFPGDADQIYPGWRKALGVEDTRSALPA

[1] = biological target: Ammonifex degensii KC4 form Iβ rubisco (Ammonifex degensii KC4); test: SEC-SAXS; 100 µl samples, 1-45 mg/ml rubisco incubated with or without CABP; Shodex KW804 column; 20 mM HEPES-OH pH 8.0, 300 mM NaCl, 10 mM MgCl2, 10 mM NaHCO3; 20 °C; molecular weight by volume of correlation
[2] = biological target: Fervidicoccus fontis form Iβ rubisco (Fervidicoccus fontis); test: as above
[3] = biological target: Prometheoarchaeum syntrophicum rubisco (Prometheoarchaeum syntrophicum); test: as above
[4] = biological target: Rhodopseudomonas faecalis form II rubisco (Rhodopseudomonas faecalis); test: as above
[5] = biological target: Thermodesulfobium acidiphilum form Iβ rubisco (Thermodesulfobium acidiphilum); test: as above

For `O=C(O)[C@@](O)(COP(=O)(O)O)[C@H](O)[C@H](O)COP(=O)(O)O` [CABP], the “14C-CABP binding, liquid scintillation (active-site count)” value (R. rubrum rubisco) was “An aliquot of activated R. rubrum was used for determination of rubisco active sites”.
With “Ammonifex degensii KC4 form Iβ rubisco (enzyme)” the stoichiometry N [1] was 2.
“Fervidicoccus fontis form Iβ rubisco (enzyme)” gave a stoichiometry N [2] of 2.
“Prometheoarchaeum syntrophicum rubisco (enzyme)” was tested, and the stoichiometry N [3] was 2.
“Rhodopseudomonas faecalis form II rubisco (enzyme)” was tested, and the stoichiometry N [4] was 6.
“Thermodesulfobium acidiphilum form Iβ rubisco (enzyme)” was tested, and the stoichiometry N [5] was 2.
